Measured values published in PMC6283576, “Structural insight into substrate and product binding in an archaeal mevalonate kinase” (PLoS ONE, 2018).

Target: the molecule itself
Assay: crystal structure; MmMK with mevalonate (2.10 Å) or 5-phosphomevalonate (2.46 Å); space group P2(1)2(1)2(1), two molecules in the asymmetric unit; 100 mM Bis-Tris pH 5.5, sodium potassium tartrate, PEG 8,000 or 10,000

B1: mevalonate kinase from Methanosarcina mazei (enzyme)
chain: MVSCSAPGKIYLFGEHAVVYGETAIACAVELRTRVRAELNDSITIQSQIGRTGLDFEKHPYVSAVIEKMRKSIPINGVFLTVDSDIPVGSGLGSSAAVTIASIGALNELFGFGLSLQEIAKLGHEIEIKVQGAASPTDTYVSTFGGVVTIPERRKLKTPDCGIVIGDTGVFSSTKELVANVRQLRESYPDLIEPLMTSIGKISRIGEQLVLSGDYASIGRLMNVNQGLLDALGVNILELSQLIYSARAAGAFGAKITGAGGGGCMVALTAPEKCNQVAEAVAGAGGKVTITKPTEQGLKVD
notes: mevalonate kinase (MmMK), Methanosarcina mazei; codon-optimized gene cloned into pSKB3 (modified pET28b); also called MmMK; MK; source: E. coli BL21(DE3), purified (Ni-NTA)
  binding result: binds
